The target in experiment [1] is anti-TRP-1 antibody (TA99, BioXcell). Put plainly: cell-based or functional assay.
The target in experiment [2] is anti-CD20 antibody (18B12, Absolute antibody). Put plainly: cell-based or functional assay.

This note sets out measurements from patent US20230340070A1.

Bounds are passed on as bounds.

On to “Alpha-2A-gamma (extracellular, transmembrane and intracellular domains of FcγRI, T2A skipping peptide and FcRγ) (receptor)”, for which, in experiment [1], the B16-H2B-tdTomato target cell count after 48 hours co-culture with infected CD8+ T cells and anti-TRP-1 antibody (FIG. 8C; sham: around 750 B16 cells) stood at 575 B16 cells; the killing of B16-H2B-tdTomato target cells by infected CD4+ and CD8+ T cells with anti-TRP-1 antibody, incuCyte target cell numbers after 48 hours; effector : target ratio needed (effector : target ratio (x to 1)) is over 8. For the substance “Alpha-gamma-2A-gamma (extracellular and transmembrane domains of FcγRI fused to the intracellular domain of FcRγ, T2A skipping peptide and FcRγ)”, in experiment [1], the killing of B16-H2B-tdTomato target cells by infected T cells with anti-TRP-1 antibody, incuCyte; effector : target ratio at which killing was induced (effector : target ratio (x:1)) is 2. Regarding “Alpha-gamma-2A-gamma (extracellular and transmembrane domains of FcγRI fused to the intracellular domain of FcRγ, T2A skipping peptide and FcRγ) (receptor)”, the A20 B-cell lymphoma cell death by Annexin-V staining in flow cytometry after co-culture with infected CD8+ T cells and anti-CD20 antibody in experiment [2] worked out at 20%. In experiment [1], the B16-H2B-tdTomato target cell count after 48 hours co-culture with infected CD8+ T cells and anti-TRP-1 antibody (FIG. 8C; sham: around 750 B16 cells) stood at 460 B16 cells.
